Laboratory results taken from paper PMC4424350, “Unraveling the Specific Regulation of the Central Pathway for Anaerobic Degradation of 3-Methylbenzoate” (The Journal of Biological Chemistry, 2015).

Tests used:
[1] = tested on: MbdR-His6 (Azoarcus sp. CIB); test: EMSA; details: relative Kd; EMSA: 20 mM Tris-HCl pH 7.5, 10% glycerol, 50 mM KCl, 0.05 nM probe, 250 ug/ml BSA, 50 ug/ml salmon sperm DNA, 20 min 30 C; footprinting: same buffer, 2 nM …
[2] = target: MbdR-His6 protein (Azoarcus sp. CIB); test: AUC; sedimentation velocity (48,000 rpm, 20 °C) and sedimentation equilibrium (5000 to 15,000 rpm) of MbdR-His6 at 11 to 46 μM in 50 mM NaH2PO4, 300 mM KCl, 20 mM imidazole, pH 8; data not shown
[3] = tested on: T1, MbdR-His6 (Azoarcus sp. CIB), ORF:e0c75ca7; test: EMSA; details: EMSA: 20 mM Tris-HCl pH 7.5, 10% glycerol, 50 mM KCl, 0.05 nM probe, 250 ug/ml BSA, 50 ug/ml salmon sperm DNA, 20 min 30 C; footprinting: same buffer, 2 nM …
T1 sequence: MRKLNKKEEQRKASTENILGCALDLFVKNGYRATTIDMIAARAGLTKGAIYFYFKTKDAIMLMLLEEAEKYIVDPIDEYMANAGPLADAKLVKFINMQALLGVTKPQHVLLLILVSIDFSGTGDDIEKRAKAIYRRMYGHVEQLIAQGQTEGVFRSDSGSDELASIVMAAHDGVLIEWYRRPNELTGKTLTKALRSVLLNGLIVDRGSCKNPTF

[4] = tested on: T1, MbdR-His6 (Azoarcus sp. CIB), ORF:e0c75ca7; test: DNase I footprinting; details: EMSA: 20 mM Tris-HCl pH 7.5, 10% glycerol, 50 mM KCl, 0.05 nM probe, 250 ug/ml BSA, 50 ug/ml salmon sperm DNA, 20 min 30 C; footprinting: same buffer, 2 nM …

Substance | Kd [1] [nM] | binding [4] | other results
PO probe (271 bp) | 1.71 | – | –
MbdR-His6 protein (natural protein) | – | – | stoichiometry N [2]: 2
ACTGAGGCCCCGCCCAAGTTTTCATTATCTCTAGTACCGGCAAAGAAGGGCCAAACAGATCTATTGCATACTATCCGGTTAGTACGTCTTTTGACCAATTGATCTACACGAGGGGAAACCATGTTCGAGAATTTCAACCATAGTGCTCTGCGTCTTGGAGCGCCAGGCGCTTTAGCGCAGCGTTTGCTGCCGAAGCATCAGGGTCACTATGTTGATGCGCATTGAGGGAATT (double strand) [PA probe (225 bp)] | – | binds | binding [3]: binds
AATTCCCTGCGCGCGGCACTATGTCGGGGGAAATTCAGTCATTGCGGAAAACGGCGTTTCCGCGAGCTCGCCAACAAAAGGTCTGACAGCCCCGGTCCCCACATGCGGCTACCATATACCGGCTGGCTGGTATGTGTCAACGACTGATACGGAAGACCTCGAAATCGGAGGGAGGAAAATGGGAAAAGGACCTTTGAGAGCATGGACGGCGCATGGCGAGGAGATGGTATTACGGTAAGTGCTCCACGAGT (double strand) [PB1 probe (251 bp)] | – | binds | Kd [3]: 3.72 nM
PB1 probe (251 bp) | 3.72 | – | –
